A short description of series [1]: K-562 cytotoxicity assay (MTT). The class given is cell-based, human. The settings on record: human, K-562 cells, 100 uM. The method, then: The K-562 cell line (CRL-243, ATCC) has attained widespread use as a highly sensitive in vitro target for cytotoxicity assays. K-562 blasts are multipotential, hematopoietic malignant cells that spontaneously differentiate into recognizable progenitors of the erythrocytic, granulocytic and monocytic series (Lozzio, B B et al., Proc. Soc. Exp. Biol. Med. 166: 546-550, 1981).
K562 cells were plated at 5,000 cells/well in 96-well tissue culture clusters (Costar) in DMEM phenol-free growth medium (Life Technologies) supplemented with pyruvate and 10% serum (HyClone). Next day, human recombinant IL-TIF (Example 19), BSA control or retinoic acid (known to be cytotoxic to K562 cells) were added. Seventy-two hours later, the vital stain MTT (Sigma, St Louis, Mo.), a widely used indicator of mitochondrial activity and cell growth, was added to the cells at a final concentration of 0.5 mg/ml. […] is converted to a purple formazan derivative by mitochondrial dehydrogenases. Four hours later, converted MMP was solubilized by adding an equal volume of acidic, isopropanol (0.04N HCl in absolute isopropanol) to the wells. Absorbance was measured at 570 nm, with background subtraction at 650 nm. In this experimental setting, absorbance reflects cell viability. Results shown in Table 12 are expressed as % cytotoxicity.

Series [2] concerns the target T1, IL-TIF (Homo sapiens, UniProt Q9GZX6).
T1 sequence (Q9GZX6 34-179): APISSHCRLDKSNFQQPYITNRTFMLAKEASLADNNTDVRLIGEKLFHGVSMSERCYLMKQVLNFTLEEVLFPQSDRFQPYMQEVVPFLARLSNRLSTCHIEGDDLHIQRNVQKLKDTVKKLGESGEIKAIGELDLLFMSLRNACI
Briefly: Inhibition of IL-TIF reporter activation in MES 13 cells by Zcytor16-Fc4. Format: cell-based. Conditions: for LU w/10 μg/ml zcytoR16: zcytoR16 10 μg/ml. The method, then:
MES 13 cells (ATCC No. CRL-1927) were plated at 10,000 cells/well in 96-well tissue culture clusters (Costar) in DMEM growth medium (Life Technologies) supplemented with pyruvate and 10% serum (HyClone). Next day, the medium was switched to serum free DMEM medium by substituting 0.1% BSA (Fraction V; Sigma) for serum. This medium also contained the adenoviral construct KZ136 (below) that encodes a luciferase reporter mini-gene driven by SRE and STAT elements, at a 1000:1 multiplicity of infection (m.o.i.), i.e. 1000 adenoviral particles per cell. After allowing 24 h for the incorporation of the adenoviral construct in the cells, the media were changed and replaced with serum-free media. Human recombinant IL-TIF with or without a recombinant Zcytor16-Fc4 fusion was added at the indicated final concentration in the well (as described in Table 11, below). Dilutions of both the IL-TIF and Zcytor16-Fc4 were performed in serum-free medium. 0.1% BSA was added for a basal assay control. 4 h later, cells were lysed and luciferase activity, denoting activation of the reporter gene, was determined in the lysate using an Luciferase Assay System assay kit (Promega) and a Labsystems Luminoskan luminometer (Labsystems, Helsinki, Finland). Activity was expressed as luciferase units (LU) in the lysate.
The construction of the adenoviral KZ136 vector was as follows. The original KZ136 vector is disclosed in Poulsen, L K et al. J. Biol. Chem. 273:6228-6232, 1998. The CMV promoter/enhancer and SV40 pA sequences were removed from pACCMV.pLpA (T. C. Becker et al., […] 43:161-189, 1994.) and replaced with a linker containing Asp718/KpnI and HindIII sites (oligos ZC13252 (SEQ ID NO:26) and ZC13453 (SEQ ID NO:27)). The STAT/SRE driven luciferase reporter cassette was exised from vector KZ136 (Poulsen, L K et al., supra.).) as a Asp718/KpnI-HindIII fragment and inserted into the adapted pAC vector. Recombinant KZ136 Adenovirus was produced by transfection with JM17 Adenovirus into 293 cells as described in T. C. Becker et al. supra.). Plaque purified virus was amplified and used to infect cultured cells at 5-50 pfu/cell 12-48 hours before assay. Luciferase reporter assays were performed as described in 96 well microplates as per Poulsen, L K et al., supra.).

The target of series [3] is T1, IL-TIF. Briefly: COS cell secretion trap binding of Zcytor16sR/Fc4 to Class II cytokines. More on the design: expressed in transfected cells; host or cells: COS cells. The settings on record: 1-3 μg/ml Zcytor16sR-Fc4; COS cells transfected with IL-TIF cDNA. The method, then: COS cell transfections were performed as follows: A mixture of 0.5 μg DNA and 5 μl lipofectamine (Gibco BRL) in 92 ul serum free DMEM media (55 mg sodium pyruvate, 146 mg L-glutamine, 5 mg transferrin, 2.5 mg insulin, 1 μg selenium and 5 mg fetuin in 500 ml DMEM) was incubated at room temperature for 30 minutes and then 400 μl serum free DMEM media added. A 500 μl mixture was added onto COS cells plated on 12-well tissue culture plate at 1.5×10^5 COS cells/well and previously incubated for 5 hours at 37° C. An additional 500 μl 20% FBS DMEM media (100 ml FBS, 55 mg sodium pyruvate and 146 mg L-glutamine in 500 ml DMEM) was added and the plates were incubated overnight.
The secretion trap was performed as follows: Media was rinsed off cells with PBS and fixed for 15 minutes with 1.8% Formaldehyde in PBS. Cells were then washed with TNT (0.1M Tris-HCl, 0.15M NaCl, and 0.05% Tween-20 in H2O). Cells were permeated with 0.1% Triton-X in PBS for 15 minutes and washed again with TNT. […]

The target of series [4] is T1, IL-TIF. Description: IL-TIF antagonist activity in BaF3/CRF2-4/zcytor11 Alamar Blue proliferation assay. The class given is cell-based. Set-up: the coding region. for human IL-TIF, without its stop codon; made in house; host or cells: BHK 570 cells. Conditions: Zcytor16 at 10 μg/ml; IL-TIF at all concentrations (0.06-50 ng/ml). The text has this:
Purified human IL-TIF-CEE (Example 19) was used to test for the presence of proliferation activity as described below. Purified humsn Zcytor16-Fc4 (Example 11) was used to antagonize the proliferative response of the IL-TIF in this assay as described below.
BaF3/CRF2-4/zcytor11 cells were spun down and washed in the complete media, described in Example 7A above, but without mIL-3 (hereinafter referred to as “mIL-3 free media”). The cells were spun and washed 3 times to ensure the removal of the mIL-3. Cells were then counted in a hemacytometer. Cells were plated in a 96-well format at 5000 cells per well in a volume of 100 μl per well using the mIL-3 free media.
Proliferation of the BaF3/CRF2-4/zcytor11 cells was assessed using IL-TIF-CEE protein diluted with mIL-3 free media to 50, 10, 2, 1, 0.5, 0.25, 0.13, 0.06 ng/ml concentrations. 100 μl of the diluted protein was added to the BaF3/CRF2-4/zcytor11 cells. […] Alamar Blue gives a fluourometric readout based on number of live cells, and is thus a direct measurement of cell proliferation in comparison to a negative control. […] Plates were read on the Fmax™ plate reader (Molecular Devices Sunnyvale, Calif.) using the SoftMax™ Pro program, at wavelengths 544 (Excitation) and 590 (Emmission). […] The response, as measured, was approximately 15-fold over background at the high end of 50 ng/ml down to a 2-fold induction at the low end of 0.06 ng/ml. […]
(The colour change of resazurin is a common sign of viable cells or microbes.)

Take `CC1=C(/C=C/C(C)=C/C=C/C(C)=C/C(=O)O)C(C)(C)CCC1` [Retinoic acid, reference compound]: the cytotoxicity at 72 h, 100 µM in series [1] worked out at 62%.

B1: Zcytor16sR/Fc4: soluble human Zcytor16 polypeptide (residue 22 to 231 of SEQ ID NO:2) fused to a C-terminal Fc4 tag (protein)
chain: TQSTHESLKPQRVQFQSRNFHNILQWQPGRALTGNSSVYFVQYKIYGQRQWKNKEDCWGTQELSCDLTSETSDIQEPYYGRVRAASAGSYSEWSMTPRFTPWWETKIDPPVMNITQVNGSLLVILHAPNLPYRYQKEKNVSIEDYYELLYRVFIINNSLEKEQKVYEGAHRAVEIEALTPHSSYCVVAEIYQPMLDRRSQRSEERCVEIPEPRSSDKTHTCPPCPAPEAEGAPSVFLFPPKPKDTLMISRTPEVTCVVVDVSHEDPEVKFNWYVDGVEVHNAKTKPREEQYNSTYRVVSVLTVLHQDWLNGKEYKCKVSNKALPSSIEKTISKAKGQPREPQVYTLPPSRDELTKNQVSLTCLVKGFYPSDIAVEWESNGQPENNYKTTPPVLDSDGSFFLYSKLTVDKSRWQQGNVFSCSVMHEALHNHYTQKSLSLSPGK
For B1, the “LU w/10 μg/ml zcytoR16” value stood at 104 ± 2 LU with IL-TIF [2] (IL-TIF 0 ng/ml (basal BSA control)); 104 ± 4 LU with IL-TIF [2] (IL-TIF 0.03 ng/ml); 99 ± 6 LU with IL-TIF [2] (IL-TIF 0.3 ng/ml); 98 ± 15 LU with IL-TIF [2] (IL-TIF 3 ng/ml); 110 ± 3 LU with IL-TIF [2] (IL-TIF 30 ng/ml); 112 ± 30 LU with IL-TIF [2] (IL-TIF 300 ng/ml). In the series with IL-TIF [2] (even at the highest dose of IL-TIF used), the “antagonism of the response to IL-TIF” value was “effectively blocks the response to IL-TIF”. In addition, in the series with IL-TIF [3], the “binding of Zcytor16sR/Fc4 to cytokine-transfected COS cells” value is listed as “positive binding”. The “response to IL-TIF in presence of Zcytor16” value with IL-TIF [4] is “brought down to background”.

Values taken from patent US7351555B2, “Mouse cytokine receptor Zcytor16” (ZymoGenetics, Inc., priority 2001, dated 2008).
